The experiment has as its target alpha-synuclein (Homo sapiens, UniProt P37840). Description: SPR. Background: In SPR one partner is held on a chip, and binding of the other changes the refractive index at the surface.

For the molecule PYYYWKDPNGS (preformed fibrils) [PYYYWKDPNGS peptide], the Kd – broadly, the concentration at which binding is half-saturated – amounted to 39.2 µM. Then ELAQMPYYYWKDPNGS (preformed fibrils) [ELAQMPYYYWKDPNGS peptide], with 133 µM; and EQALMPWIWYWKDPNGS (preformed fibrils) [EQALMPWIWYWKDPNGS peptide], with 28.4 µM.

PYYYWKELAQM (preformed fibrils) [PYYYWKELAQM peptide]: the affinity, expressed as Kd, was 55.2 µM.

Molecule ELAQMGPEGMGLEDPNGS (preformed fibrils) [ELAQMGPEGMGLEDPNGS peptide] displayed a Kd of 194 µM.

(Values after article PMC11591946 (2024).)
